Measured values: IntAct's records for PubMed 16328881

B1: Minichromosome maintenance protein 10 (Saccharomyces cerevisiae), P32354 (parent)
chain: MNDPREILAVDPYNNITSDEEDEQAIARELEFMERKRQALVERLKRKQEFKKPQDPNFEAIEVPQSPTKNRVKVGSHNATQQGTKFEGSNINEVRLSQLQQQPKPPASTTTYFMEKFQNAKKNEDKQIAKFESMMNARVHTFSTDEKKYVPIITNELESFSNLWVKKRYIPEDDLKRALHEIKILRLGKLFAKIRPPKFQEPEYANWATVGLISHKSDIKFTSSEKPVKFFMFTITDFQHTLDVYIFGKKGVERYYNLRLGDVIAILNPEVLPWRPSGRGNFIKSFNLRISHDFKCILEIGSSRDLGWCPIVNKKTHKKCGSPINISLHKCCDYHREVQFRGTSAKRIELNGGYALGAPTKVDSQPSLYKAKGENGFNIIKGTRKRLSEEEERLKKSSHNFTNSNSAKAFFDEKFQNPDMLANLDNKRRKIIETKKSTALSRELGKIMRRRESSGLEDKSVGERQKMKRTTESALQTGLIQRLGFDPTHGKISQVLKSSVSGSEPKNNLLGKKKTVINDLLHYKKEKVILAPSKNEWFKKRSHREEVWQKHFGSKETKETSDGSASDLEII

Variants of: B1
Conditions: with sir2_yeast SIR2, P06700
sir2_yeast SIR2, P06700, sequence (P06700 whole entry): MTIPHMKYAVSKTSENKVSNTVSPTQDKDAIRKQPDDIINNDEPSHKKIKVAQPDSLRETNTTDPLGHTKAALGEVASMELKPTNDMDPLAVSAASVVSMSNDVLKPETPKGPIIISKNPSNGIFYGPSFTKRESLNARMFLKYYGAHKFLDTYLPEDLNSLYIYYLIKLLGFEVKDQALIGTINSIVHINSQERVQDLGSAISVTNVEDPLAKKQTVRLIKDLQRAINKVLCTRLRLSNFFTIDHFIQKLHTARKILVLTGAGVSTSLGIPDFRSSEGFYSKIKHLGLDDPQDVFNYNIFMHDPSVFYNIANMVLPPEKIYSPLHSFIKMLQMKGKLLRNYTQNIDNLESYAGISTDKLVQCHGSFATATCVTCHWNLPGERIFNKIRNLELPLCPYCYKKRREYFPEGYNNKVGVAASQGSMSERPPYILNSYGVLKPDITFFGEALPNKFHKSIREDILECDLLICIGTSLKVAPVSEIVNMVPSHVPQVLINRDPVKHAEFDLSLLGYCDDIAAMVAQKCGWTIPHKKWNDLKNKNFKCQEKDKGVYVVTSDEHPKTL

Row | effect of a mutation on the interaction | Variant
1 | disrupting interaction strength | P269L

Variants of: B1
Conditions: with sir3_yeast SIR3, P06701
sir3_yeast SIR3, P06701, sequence (P06701 whole entry): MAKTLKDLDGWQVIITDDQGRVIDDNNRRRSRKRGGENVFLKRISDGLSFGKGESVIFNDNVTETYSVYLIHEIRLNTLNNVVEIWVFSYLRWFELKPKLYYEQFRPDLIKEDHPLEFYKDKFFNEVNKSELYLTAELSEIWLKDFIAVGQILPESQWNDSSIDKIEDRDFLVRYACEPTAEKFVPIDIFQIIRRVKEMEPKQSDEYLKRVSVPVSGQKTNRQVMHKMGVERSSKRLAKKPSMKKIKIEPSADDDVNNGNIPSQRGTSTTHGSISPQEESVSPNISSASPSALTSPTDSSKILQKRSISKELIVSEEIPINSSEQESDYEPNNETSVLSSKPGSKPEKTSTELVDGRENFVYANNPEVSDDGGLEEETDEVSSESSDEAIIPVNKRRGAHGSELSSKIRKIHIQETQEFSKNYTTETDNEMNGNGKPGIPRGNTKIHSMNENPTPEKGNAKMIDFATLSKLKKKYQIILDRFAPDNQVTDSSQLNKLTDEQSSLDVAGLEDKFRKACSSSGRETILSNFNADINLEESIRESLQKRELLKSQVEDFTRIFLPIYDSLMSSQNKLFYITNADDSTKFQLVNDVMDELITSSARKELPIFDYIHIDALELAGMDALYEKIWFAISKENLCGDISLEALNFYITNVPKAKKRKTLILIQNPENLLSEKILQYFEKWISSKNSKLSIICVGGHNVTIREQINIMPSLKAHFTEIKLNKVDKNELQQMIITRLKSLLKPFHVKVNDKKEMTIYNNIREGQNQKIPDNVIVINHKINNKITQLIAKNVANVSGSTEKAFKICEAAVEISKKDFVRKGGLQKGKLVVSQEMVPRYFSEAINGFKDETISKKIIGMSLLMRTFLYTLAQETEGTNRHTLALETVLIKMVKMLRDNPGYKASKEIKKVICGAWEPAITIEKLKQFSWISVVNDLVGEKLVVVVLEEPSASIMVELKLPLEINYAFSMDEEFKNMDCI

Row | effect of a mutation on the interaction | Variant
2 | disrupting interaction strength | P269L
3 | disrupting interaction strength | C320Y
